Experimental data reported in PMC6520018.
Positions count from the first letter of the chain named. Like-named read-outs stand apart in the source and are kept apart here.

T1: AtALBA2 (Arabidopsis thaliana, UniProt O22969 1-130)
T1 sequence: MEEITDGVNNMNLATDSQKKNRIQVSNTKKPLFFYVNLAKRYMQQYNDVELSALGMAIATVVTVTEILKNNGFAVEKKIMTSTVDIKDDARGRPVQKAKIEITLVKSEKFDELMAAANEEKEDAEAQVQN

T2: AtALBA2 K30E (Arabidopsis thaliana, UniProt O22969 1-130, K30E)
T2 sequence: T1 sequence with K30E

B1: artificial R-loop (mixed)
DNA 1: GCTCGCAAACTACTTAGATGTCATCCGCGAGG
DNA 2: CCTCGCAAGCGGCGATGATGAGATTCGAAAGCGAGC
RNA: UCGAAUCUCAUCAUCGCCGC
B2: dsDNA (EMSA-DNA) (dsDNA)
DNA 1: TCGAATCTCATCATCGCCGC
DNA 2: GCGGCGATGATGAGATTCGA

Key:
Experiment in all cases: EMSA
AtALBA2 [1] = molecular target: T1, AtALBA2
AtALBA2 K30E = molecular target: T2, AtALBA2 K30E
AtALBA2 [2] = molecular target: T1, AtALBA2; remark: listed apart in the source

Binder | binding result (AtALBA2 [1]) | binding result (AtALBA2 K30E) | binding result (AtALBA2 [2])
B1 | binds |  | 
B2 |  | no binding | binds
